Data reported in IntAct's records for PubMed 22921828.

B1: Epidermal growth factor receptor kinase substrate 8 (Homo sapiens), Q12929 (parent)
chain: MNGHISNHPSSFGMYPSQMNGYGSSPTFSQTDREHGSKTSAKALYEQRKNYARDSVSSVSDISQYRVEHLTTFVLDRKDAMITVDDGIRKLKLLDAKGKVWTQDMILQVDDRAVSLIDLESKNELENFPLNTIQHCQAVMHSCSYDSVLALVCKEPTQNKPDLHLFQCDEVKANLISEDIESAISDSKGGKQKRRPDALRMISNADPSIPPPPRAPAPAPPGTVTQVDVRSRVAAWSAWAADQGDFEKPRQYHEQEETPEMMAARIDRDVQILNHILDDIEFFITKLQKAAEAFSELSKRKKNKKGKRKGPGEGVLTLRAKPPPPDEFLDCFQKFKHGFNLLAKLKSHIQNPSAADLVHFLFTPLNMVVQATGGPELASSVLSPLLNKDTIDFLNYTVNGDERQLWMSLGGTWMKARAEWPKEQFIPPYVPRFRNGWEPPMLNFMGATMEQDLYQLAESVANVAEHQRKQEIKRLSTEHSSVSEYHPADGYAFSSNIYTRGSHLDQGEAAVAFKPTSNRHIDRNYEPLKTQPKKYAKSKYDFVARNNSELSVLKDDILEILDDRKQWWKVRNASGDSGFVPNNILDIVRPPESGLGRADPPYTHTIQKQRMEYGPRPADTPPAPSPPPTPAPVPVPLPPSTPAPVPVSKVPANITRQNSSSSDSGGSIVRDSQRHKQLPVDRRKSQMEEVQDELIHRLTIGRSAAQKKFHVPRQNVPVINITYDSTPEDVKTWLQSKGFNPVTVNSLGVLNGAQLFSLNKDELRTVCPEGARVYSQITVQKAALEDSSGSSELQEIMRRRQEKISAAASDSGVESFDEGSSH
partner: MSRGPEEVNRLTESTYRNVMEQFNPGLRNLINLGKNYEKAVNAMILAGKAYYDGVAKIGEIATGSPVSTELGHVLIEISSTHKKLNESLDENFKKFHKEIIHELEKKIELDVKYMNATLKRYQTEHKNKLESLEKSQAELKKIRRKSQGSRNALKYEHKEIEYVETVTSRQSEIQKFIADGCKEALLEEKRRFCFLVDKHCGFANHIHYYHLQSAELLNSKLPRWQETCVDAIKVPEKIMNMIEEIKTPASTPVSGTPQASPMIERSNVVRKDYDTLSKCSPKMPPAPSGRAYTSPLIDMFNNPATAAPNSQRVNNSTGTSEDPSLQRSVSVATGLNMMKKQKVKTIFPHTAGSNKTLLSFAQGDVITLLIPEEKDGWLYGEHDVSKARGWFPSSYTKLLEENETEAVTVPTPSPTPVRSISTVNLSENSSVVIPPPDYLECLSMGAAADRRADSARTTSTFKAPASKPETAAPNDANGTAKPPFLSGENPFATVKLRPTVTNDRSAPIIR
B2: "Secreted effector protein EspF(U)" (Escherichia coli O157:H7), P0DJ88 (parent)
chain: MINNVSSLFPTVNRNITAVYKKSSFSVSPQKITLNPVKISSPFSPSSSSISATTLFRAPNAHSASFHRQSTAESSLHQQLPNVRQRLIQHLAEHGIKPARSMAEHIPPAPNWPAPPPPVQNEQSRPLPDVAQRLVQHLAEHGIQPARNMAEHIPPAPNWPAPPLPVQNEQSRPLPDVAQRLVQHLAEHGIQPARSMAEHIPPAPNWPAPPPPVQNEQSRPLPDVAQRLMQHLAEHGIQPARNMAEHIPPAPNWPAPTPPVQNEQSRPLPDVAQRLMQHLAEHGIQPARNMAEHIPPAPNWPAPTPPVQNEQSRPLPDVAQRLMQHLAEHGINTSKRS
partner: B1 partner

Variants of: B1
Settings: with bi2l1_human BAIAP2L1, Q9UHR4

Row | Variant | effect of a mutation on the interaction
1 | A215W | increasing interaction strength

Variants of: B2
Settings: with bi2l1_human BAIAP2L1, Q9UHR4

Row | Variant | effect of a mutation on the interaction
2 | W300A | decreasing interaction strength

Variants of: B2
Settings: with bi2l1_human BAIAP2L1, Q9UHR4
Remark: another data set of the same source

Row | Variant | effect of a mutation on the interaction
3 | W300A | disrupting interaction strength
